Assay results reported in patent publication US20230136301A1, “Corticosteriod Reduction in Treatment with Anti-CD38 Antibody” (Janssen Biotech, Inc., priority 2021, published 2023).
Entries after “also recorded” stand apart in the source; their conditions may differ.

What was measured:
[1] = system: patients with multiple myeloma; details: COLUMBA, cited from earlier work
patients with RRMM [2] = details: in vivo
patients with RRMM [3] = details: DARA MD 1,800 mg; PAVO Part 1; median follow-up 8.3 months; cited from earlier work
patients with RRMM [4] = test: PAVO Part 1: DARA MD safety and efficacy
patients with RRMM [5] = test: PAVO Part 3: immunogenicity (anti-daratumumab and anti-rHuPH20 antibodies); assay type: in vivo, human
Experimental: For evaluation of immunogenicity, anti-daratumumab antibodies in serum and anti-rHuPH20 antibodies in plasma were assessed pre-dose on Cycle 1 Day 1, Cycle 1 Day 15, Cycle 2 Day 22, Cycle 4 Day 1 and 4- and 8-weeks post-treatment. The presence of anti-daratumumab and/or anti-rHuPH20 antibodies was assessed for classification as neutralizing antibodies.

Molecule: DARA IV: daratumumab 16 mg/kg given by intravenous infusion
- Median duration of response ([1]; follow-up 7.5 months): not reached
- Overall response rate ([1]; median follow-up 7.5 months): 37%

Molecule: DARA MD: mix-and-deliver formulation of daratumumab (20 mg/mL) and rHuPH20 given subcutaneously by syringe pump
- Serious TEAEs in SOC Infections and infestations (patients with RRMM [2]): 17.8%
- TEAEs in SOC Infections and infestations (patients with RRMM [2]): 71.1%
- ORR (patients with RRMM [3]): 42.2%
- Anemia, TEAE of Grade >3 (patients with RRMM [4]): 15.6%
- Serious TEAEs in SOC General disorders and administration site conditions (patients with RRMM [4]): 6.7%
- TEAEs in SOC General disorders and administration site conditions (patients with RRMM [4]): 71.1%

Molecule: daratumumab: human IgG1/κ anti-CD38 monoclonal antibody; heavy chain SEQ ID NO:12, light chain SEQ ID NO:13
- Patients positive for anti-daratumumab antibodies (patients with RRMM [5]; daratumumab immunogenicity-evaluable n=41): no patient tested positive; also recorded: no patients evaluable for daratumumab immunogenicity were positive

B1: rHuPH20: recombinant hyaluronidase having the amino acid sequence of SEQ ID NO: 22 (protein, listed as Homo sapiens)
chain: LNFRAPPVIPNVPFLWAWNAPSEFCLGKFDEPLDMSLFSFIGSPRINATGQGVTIFYVDRLGYYPYIDSITGVTVNGGIPQKISLQDHLDKAKKDITFYMPVDNLGMAVIDWEEWRPTWARNWKPKDVYKNRSIELVQQQNVQLSLTEATEKAKQEFEKAGKDFLVETIKLGKLLRPNHLWGYYLFPDCYNHHYKKPGYNGSCFNVEIKRNDDLSWLWNESTALYPSIYLNTQQSPVAATLYVRNRVREAIRVSKIPDAKSPLPVFAYTRIVFTDQVLKFLSQDELVYTFGETVALGASGIVIWGTLSIMRSMKSCLLLDNYMETILNPYIINVTLAAKMCSQVLCQEQGVCIRKNWNSSDYLHLNPDNFAIQLEKGGKFTVRGKPTLEDLEQFSEKFYCSCYSTLSCKEKADVKDTDAVDVCIADGVCIDAFLKPPMETEEPQIFY
- Patients positive for treatment-emergent anti-rHuPH20 antibodies (patients with RRMM [5]; 1-week taper): 1 (9.1%) n (%)
- Patients positive for treatment-emergent anti-rHuPH20 antibodies (patients with RRMM [5]; 2-week taper): 3 (20.0%) n (%)
- Patients positive for treatment-emergent anti-rHuPH20 antibodies (patients with RRMM [5]; 3-week taper): 6 (40.0%) n (%)
- Neutralizing anti-rHuPH20 antibodies (patients with RRMM [5]; all cohorts): None of the anti-rHuPH20 antibodies were neutralizing antibodies
